Data on 6 molecules can be found in patent US20100286027A1, “ANTI-BACTERIAL COMPOSITIONS” (priority 2008, published 2010).

In brackets after ≈: the same amount, converted by molar mass.

Experiment [1] deals with Listeria monocytogenes (7644). Nature of the experiment: BacTiter-Glo bacterial ATP content viability assay.
Experiment [2] has as its system Bacillus Subtilis (6633). Nature of the experiment: BacTiter-Glo bacterial ATP content viability assay. The settings on record: for B. subtilis viability by ATP-coupled luminescence assay: FIG. 12, full length protein.
For experiment [3], the system named is Enterococcus faecalis (29212). The experiment is described as follows: BacTiter-Glo bacterial ATP content viability assay. The settings on record: for E. faecals viability by ATP-coupled luminescence assay: FIG. 12, full length protein.
Experiment [4] relates to Staphylococcus aureus (29213). Nature of the experiment: BacTiter-Glo bacterial ATP content viability assay. As to conditions: for S. aureus viability by ATP-coupled luminescence assay: FIG. 12, full length protein.
The subject of experiment [5] is Bacteroides fragilis NB85001. The experiment is described as follows: MIC against anaerobic bacteria. The format is cell-based. The settings on record: read-out: minimal inhibitory concentration (MIC).
Experiment [6] relates to Prevotella intermedia NB88001. Nature of the experiment: MIC against anaerobic bacteria. The format is cell-based. As to conditions: read-out: minimal inhibitory concentration (MIC).
Experiment [7] deals with Eubacterium lentum NB94001. The experiment is described as follows: MIC against anaerobic bacteria. The format is cell-based. The settings on record: read-out: minimal inhibitory concentration (MIC).
Experiment [8] concerns Peptostreptococcus anaerobius NB97001. Nature of the experiment: MIC against anaerobic bacteria. The format is cell-based. The settings on record: read-out: minimal inhibitory concentration (MIC).
In experiment [9] the test system is Propionibacterium acnes NB99001. Nature of the experiment: MIC against anaerobic bacteria. The format is cell-based. The settings on record: Cutibacterium acnes, read-out: minimal inhibitory concentration (MIC).
Experiment [10] has as its system E. coli NB27005* (TolC efflux pump mutant). Nature of the experiment: MIC against aerobic gram negative bacteria, efflux pump mutant. The format is cell-based, Escherichia coli. The settings on record: aerobic gram negative; E. coli NB27005*, TolC efflux pump mutant strain.
Experiment [11] deals with H. influenzae NB65027-CDS0021* (TolC efflux pump mutant). Described as above. The format is cell-based, Haemophilus influenzae. As to conditions: aerobic gram negative; H. influenzae NB65027-CDS0021*, TolC efflux pump mutant strain.
Experiment [12] relates to L. monocytogenes. The experiment is described as follows: Bacterial growth inhibition (FIG. 15). As to conditions: FIG. 15 Panel C. The format is cell-based, Listeria monocytogenes.
Experiment [13] deals with lawn of the indicated bacteria. The experiment is described as follows: Agar diffusion assay. As to conditions: FIG. 11 Panel D; 0.5 mg/ml in sterile PBS per well. For orientation: Agar diffusion results depend on both activity and mobility in agar.
In experiment [14] the test system is Streptococcus pneumoniae (49619). The experiment is described as follows: BacTiter-Glo bacterial ATP content viability assay. As to conditions: gram +, +/− SD, n = 3, >100 = activity detected but <50% inhibition.
Experiment [15] deals with Escherichia coli (8739). The experiment is described as follows: BacTiter-Glo bacterial ATP content viability assay. As to conditions: gram −, +/− SD, n = 3, >100 = activity detected but <50% inhibition.
The test system of experiment [16] is Escherichia coli (25922). Nature of the experiment: BacTiter-Glo bacterial ATP content viability assay. As to conditions: gram −, +/− SD, n = 3, >100 = activity detected but <50% inhibition.
The subject of experiment [17] is Klebsiella pneumoniae (700603). Nature of the experiment: BacTiter-Glo bacterial ATP content viability assay. The settings on record: gram −, +/− SD, n = 3, >100 = activity detected but <50% inhibition.
The test system of experiment [18] is Pseudomonas aeruginosa (27853). The experiment is described as follows: BacTiter-Glo bacterial ATP content viability assay. As to conditions: gram −, +/− SD, n = 3, >100 = activity detected but <50% inhibition.
The test system of experiment [19] is Salmonella choleraesuis (13076). Nature of the experiment: BacTiter-Glo bacterial ATP content viability assay. As to conditions: gram −, +/− SD, n = 3, >100 = activity detected but <50% inhibition.
The test system of experiment [20] is Stenotrophomonas maltophilia (17666). Nature of the experiment: BacTiter-Glo bacterial ATP content viability assay. As to conditions: gram −, +/− SD, n = 3, >100 = activity detected but <50% inhibition.
The subject of experiment [21] is Streptococcus pneumoniae (ATCC 49619). The experiment is described as follows: Gentamycin protection assay in stable 293 cell lines. The settings on record: 293 cells stably expressing the protein, infected with S. pneumoniae at MOI 10:1, versus control cells.
Experiment [22] has as its system S. maltophilia. Nature of the experiment: Bacterial growth inhibition (FIG. 15). It counts as cell-based, Stenotrophomonas maltophilia. The settings on record: FIG. 15 Panel A.
[23] abbreviates: FIG. 10, 5×10^5 bacteria/100 μl, increasing concentrations, 6 hours at 37° C., relative to controls.

In the case of “TLR2: recombinant LRR domain of Toll-like receptor 2; human TLR2-LRR is SEQ ID NO: 6”, the “L. monocytogenes viability by ATP-coupled luminescence assay” value (“L. monocytogenes viability” for short) in [1] (setting [23]) is given as “inhibit”.

With “G908R: full length Nod2 protein carrying the Crohn's-associated G908R mutation”, the “L. monocytogenes viability” value in experiment [1] (FIG. 12, full length protein) is “deficient”. Moreover, in experiment [2], the “B. subtilis viability by ATP-coupled luminescence assay” value is reported as “deficient”. Also, the “E. faecals viability by ATP-coupled luminescence assay” value in experiment [3] is recorded as “deficient”. Further, the “S. aureus viability by ATP-coupled luminescence assay” value in experiment [4] is given as “deficient”.

Turning to `O=C(O)c1cn(C2CC2)c2cc(N3CCNCC3)c(F)cc2c1=O` [Ciprofloxacin, reference compound], the MIC in experiment [5] was 8 µg/mL (≈ 24.1 µM); in experiment [6], 1 µg/mL (≈ 3.02 µM); in [7], 2 µg/mL (≈ 6.04 µM); in experiment [8], 1 µg/mL (≈ 3.02 µM); in experiment [9], 1 µg/mL (≈ 3.02 µM).

B1: Nalp3: recombinant LRR domain of Nalp3; human Nalp3-LRR is SEQ ID NO: 7 (protein, listed as Homo sapiens)
chain: MVQCVLPSSSHAACSHGLVNSHLTSSFCRGLFSVLSTSQSLTELDLSDNSLGDPGMRVLCETLQHPGCNIRRLWLGRCGLSHECCFDISLVLSSNQKLVELDLSDNALGDFGIRLLCVGLKHLLCNLKKLWLVSCCLTSACCQDLASVLSTSHSLTRLYVGENALGDSGVAILCEKAKNPQCNLQKLGLVNSGLTSVCCSALSSVLSTNQNLTHLYLRGNTLGDKGIKLLCEGLLHPDCKLQVLELDNCNLTSHCCWDLSTLLTSSQSLRKLSLGNNDLGDLGVMMFCEVLKQQSCLLQNLGLSEMYFNYETKSALETLQEEKPELTVVFEPSW
Regarding B1, in experiment [1] (setting [23]), the “L. monocytogenes viability” value is listed as “inhibit”.

B2: Nod2 3020insC: recombinant LRR domain of the Crohn's-associated 3020insC mutant of Nod2 (deoxycytosine inserted at nucleotide position 3020) (protein)
chain: PAAPGEAKSVHAMPGFIWLIRSLYEMQEERLARKAARGLNVGHLKLTFCSVGPTECAALAFVLQHLRRPVALQLDYNSVGDIGVEQLLPCLGVCKALYLRDNNISDRGICKLIECALHCEQLQKLALFNNKLTDGCAHSMAKLLACRQNFLALRLGNNYITAAGAQVLAEGLRGNTSLQFLGFWGNRVGDEGAQALAEALGDHQSLRWLSLVGNNIGSVGAQALALMLAKNVMLEELCLEENHLQDEGVCSLAEGLKKNSSLKILKLSNNCITYLGAEALLQAP
Consider B2, for which the results for the “minimal inhibitory concentration (MIC)” value in [10] and in experiment [11] were above 128 microgram/ml and 64 microgram/ml, respectively. The L. monocytogenes growth entry in [12] is given as “inhibited”. The “anti-bacterial activity by agar diffusion assay” value in experiment [13] was “not”. Also, the “L. monocytogenes viability” value in [1] (FIG. 12, full length protein) is “deficient”. Further, the “antibacterial activity by bacterial ATP content (IC50), [LRR domain]” value is 16.5 +/− 13.3 microgram/ml in [1] (Listeria monocytogenes (7644), gram +, +/− SD, n = 3, >100 = activity detected but <50% inhibition); 54.0 +/− 20.2 microgram/ml in experiment [2] (Bacillus Subtilis (6633), gram +, +/− SD, n = 3, >100 = activity detected but <50% inhibition); “None detected” in [3] (Enterococcus faecalis (29212), gram +, +/− SD, n = 3, >100 = activity detected but <50% inhibition); “None detected” in experiment [4] (Staphylococcus aureus (29213), gram +, +/− SD, n = 3, >100 = activity detected but <50% inhibition); “None detected” in experiment [14]; “None detected” in experiment [15]. The “antibacterial activity by bacterial ATP content (IC50), [LRR domain]” value in experiment [16], in [17], in [18], in experiment [19] and in experiment [20] was “None detected” throughout. For the same molecule, the “B. subtilis viability by ATP-coupled luminescence assay” value in experiment [2] is “deficient”. The “E. faecals viability by ATP-coupled luminescence assay” value in experiment [3] is given as “deficient”. In addition, the “S. aureus viability by ATP-coupled luminescence assay” value in experiment [4] is given as “deficient”. In addition, the “number of gentamycin-protected intracellular bacteria” value in experiment [21] is “No obvious protection”.

B3: NAIP: Neuronal apoptosis inhibitor protein, an LRR protein (protein, UniProt Q13075 1-1403, looked up)
Baculoviral IAP …: MATQQKASDERISQFDHNLLPELSALLGLDAVQLAKELEEEEQKERAKMQKGYNSQMRSEAKRLKTFVTYEPYSSWIPQEMAAAGFYFTGVKSGIQCFCCSLILFGAGLTRLPIEDHKRFHPDCGFLLNKDVGNIAKYDIRVKNLKSRLRGGKMRYQEEEARLASFRNWPFYVQGISPCVLSEAGFVFTGKQDTVQCFSCGGCLGNWEEGDDPWKEHAKWFPKCEFLRSKKSSEEITQYIQSYKGFVDITGEHFVNSWVQRELPMASAYCNDSIFAYEELRLDSFKDWPRESAVGVAALAKAGLFYTGIKDIVQCFSCGGCLEKWQEGDDPLDDHTRCFPNCPFLQNMKSSAEVTPDLQSRGELCELLETTSESNLEDSIAVGPIVPEMAQGEAQWFQEAKNLNEQLRAAYTSASFRHMSLLDISSDLATDHLLGCDLSIASKHISKPVQEPLVLPEVFGNLNSVMCVEGEAGSGKTVLLKKIAFLWASGCCPLLNRFQLVFYLSLSSTRPDEGLASIICDQLLEKEGSVTEMCVRNIIQQLKNQVLFLLDDYKEICSIPQVIGKLIQKNHLSRTCLLIAVRTNRARDIRRYLETILEIKAFPFYNTVCILRKLFSHNMTRLRKFMVYFGKNQSLQKIQKTPLFVAAICAHWFQYPFDPSFDDVAVFKSYMERLSLRNKATAEILKATVSSCGELALKGFFSCCFEFNDDDLAEAGVDEDEDLTMCLMSKFTAQRLRPFYRFLSPAFQEFLAGMRLIELLDSDRQEHQDLGLYHLKQINSPMMTVSAYNNFLNYVSSLPSTKAGPKIVSHLLHLVDNKESLENISENDDYLKHQPEISLQMQLLRGLWQICPQAYFSMVSEHLLVLALKTAYQSNTVAACSPFVLQFLQGRTLTLGALNLQYFFDHPESLSLLRSIHFPIRGNKTSPRAHFSVLETCFDKSQVPTIDQDYASAFEPMNEWERNLAEKEDNVKSYMDMQRRASPDLSTGYWKLSPKQYKIPCLEVDVNDIDVVGQDMLEILMTVFSASQRIELHLNHSRGFIESIRPALELSKASVTKCSISKLELSAAEQELLLTLPSLESLEVSGTIQSQDQIFPNLDKFLCLKELSVDLEGNINVFSVIPEEFPNFHHMEKLLIQISAEYDPSKLVKLIQNSPNLHVFHLKCNFFSDFGSLMTMLVSCKKLTEIKFSDSFFQAVPFVASLPNFISLKILNLEGQQFPDEETSEKFAYILGSLSNLEELILPTGDGIYRVAKLIIQQCQQLHCLRVLSFFKTLNDDSVVEIAKVAISGGFQKLENLKLSINHKITEEGYRNFFQALDNMPNLQELDISRHFTECIKAQATTVKSLSQCVLRLPRLIRLNMLSWLLDADDIALLNVMKERHPQSKYLTILQKWILPFSPIIQK
As for B3, in [22], the “growth of S. maltophilia” value is “inhibited the growth”.
